Results: US20070219129A1, “hsp90 decoy peptides and uses thereof” (priority 2005, published 2007)
Entries after “also recorded” stand apart in the source; their conditions may differ. Ends that are not written are not given here.

How the values were obtained:
[1] = system: murine facialis arteries; assay: ACh-induced vasodilation of isolated, pressurized facialis arteries after acute peptide exposure; parameters: species or system C57BL/6 mice; conditions: 10 μg/mL, 10 min pre-treatment, vs vehicle control
Source text: The B2 peptide was also shortened to 15 aa (AELVLEVPLEHPTLE) with the TAT PTD (RKKRRQRRR) added at the N-terminal as described by Pagano and associates.^6 (Note that the initial A residue is a linker.) This redesign made a new decoy peptide (RKKRRQRRR-AELVLEVPLEHPTLE), which we called TSB2. In designing a control peptide, TSB(Ctr) (RKKRRQRRR-AALVLAVPLAHPRLA), we reasoned that if E were important for binding, then replacing E with A would result in a peptide that would fail to bind to hsp90 or another heatshock protein essential to chaperone-dependent signaling and possibly mitochondrial function and therefore fail to impair vasodilation. To test these ideas, TSB2 and TSB(Ctr) (10 μg/mL) were incubated with separatefacialis arteries from healthy C57BL/6 male mice, whose vasodilation is mediated 100% by eNOS.^9 Ten minutes later, excess peptides were removed by changing the buffer and ACh-dose response curves of the preconstricted and pressurized vessels determined as before.^9

[2] = system: B16 melanoma cells; assay: Viability of B16 melanoma cells in culture (LDH release); format: cell-based; conditions: even at 100 μg/mL
[3] = molecular target: T1, heat shock protein 90 (hsp90), endogenous in bovine aortic endothelial cells (BAEC) (bovine, UniProt A0AAA9SQM8); assay: eNOS immunoprecipitation from treated BAEC cultures, western blot for hsp90 (FIG. 2)
[4] = molecular target: T1, heat shock protein 90 (hsp90), …; assay: peptide at 10 ug/mL in BAEC lysate, eNOS immunoprecipitation, western blot for hsp90

Molecule	percent decrease of hsp90 association with eNOS [4] [%]	further results
RKKRRQRRR-AALVLAVPLAHPRLA [TSB(Ctr)]		effect on ACh-induced vasodilation (in words) [1]: no effect
RKKRRQRRRAELVLEVPLEHPTLE [TSB2, RKKRRQRRR-AELVLEVPLEHPTLE]		viability of B16 melanoma cells (LDH release) [2]: no significant effects; also recorded: no direct effect
RKKRRQRRRAELVLEVPLEHPTLE [TSB2]		hsp90 association with eNOS relative to PEP1-treated or untreated cultures [3]: 0.25 fraction of control level
APELFVLPPELVLEVPLEHP [B2 (301-320)]	~80	
LVLEVPLEHPTLEWFAALGL [B3 (311-330)]	~80	
LPLLLQAPDEAPELFVLPPE [B1 (291-311)]	~80	
